Results on 38 sequences are retold here after the supplement of paper PMC7877785.

± gives the uncertainty stated by the source.

The nature of the data set: self-splicing fitness, log relative to wild type (ln ratio); higher = more splicing; Tetrahymena group I intron in knt gene, E. coli kanamycin selection, DiMSum; sequences stand for … in CUCUCU…GGAGGGAAAAGUUAUCAGGCAUGCACCUGGUAGCUAGUCUUUAAACCAAUAGAUUGCAUCGGUUUAAAAGGCAAGACCGUCAAAUUGCGGGAAAGGGGUCAACAGCCGUUCAGUACCAAGUCUCAGGGGAAACUUUGAGAUGGCCUUGCAAAGGGUAUGGUAAUAAGCUGACGGACAUGGUCCUAACCACGCAGCCAAGUCCUAAGUCAACAGAUCUUCUGUUGAUAUGGAUGCAGUUCACAGACUAAAUGUCGGUCGGGGAAGAUGUAUUCUUCUCAUAAGAUAUAGUCGGACCUCUCCUUAAUGGGAGCUAGCGGAUGAAGUGAUGCAACACUGGAGCCGCUGGGAACUAAUUUGUAUGCGAAAGUAUAUUGAUUAGUUUUGGAGUACUCGUGGUCG
An outline of the steps:
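Library with all eight P1ex-region intron nucleotides randomised, intron inside the knt kanamycin-resistance gene on pET-22b(+), in E. coli BL21(DE3). Cells grew overnight at 37°C or 30°C on LB agar with or without 25 μg/mL kanamycin (plus 100 μg/mL carbenicillin, 50 μM IPTG, 0.2% rhamnose), in six replicate transformations. Pooled colonies were amplicon-sequenced on Illumina HiSeq 2500. DiMSum fitness is the error-weighted combination of wild-type-normalised replicate fold changes, kanamycin versus none.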

Consider CAGGAGCAAUAUUACGUUCG, for which the “self-splicing fitness (ln)” value was -0.032 ± 0.12 (30 °C) and 0.338 ± 0.15 (37 °C).

Consider CAGGAGCAAUAUUACGUUGA, for which the “self-splicing fitness (ln)” value (30 °C) is -3.22 ± 0.37 and the “self-splicing fitness (ln)” value (37 °C) was -3.85 ± 0.42.

With CAGGAGCAAUAUUACGUUUA, the “self-splicing fitness (ln)” value runs as follows: (30 °C) -3.29 ± 0.15; (37 °C) -2.44 ± 0.15.

As for CAGUAGCAAUAUUACGAAGU, the “self-splicing fitness (ln)” value is -0.925 ± 0.18 (30 °C) and -1.82 ± 0.27 (37 °C).

For the sequence CAGUAGCAAUAUUACGACAU, the “self-splicing fitness (ln)” value reads like this: (30 °C) -3.226 ± 0.023; (37 °C) -1.83 ± 0.036.

Turning to CAGUAGCAAUAUUACGAGCA, the “self-splicing fitness (ln)” value (30 °C) was -2.59 ± 0.3 and the “self-splicing fitness (ln)” value (37 °C) was -2.3 ± 0.27.

Regarding CAGUAGCAAUAUUACGAUAU, the “self-splicing fitness (ln)” value runs as follows: (30 °C) -2.7 ± 0.2; (37 °C) -1.88 ± 0.21.

CAGUAGCAAUAUUACGAUCU: the “self-splicing fitness (ln)” value (30 °C) is -1.52 ± 0.15 and the “self-splicing fitness (ln)” value (37 °C) was -1.15 ± 0.19.

CAGUAGCAAUAUUACGAUUG: the “self-splicing fitness (ln)” value reads like this: (30 °C) -1.73 ± 0.083; (37 °C) -0.648 ± 0.11.

Take CAGUAGCAAUAUUACGCAAU: for the setting “30 °C”, the “self-splicing fitness (ln)” value was -1.7 ± 0.39.

Regarding CAGUAGCAAUAUUACGCACU, the “self-splicing fitness (ln)” value (30 °C) is -2.19 ± 0.18 and the “self-splicing fitness (ln)” value (37 °C) was -1.34 ± 0.17.

Take CAGUAGCAAUAUUACGCAUU: the “self-splicing fitness (ln)” value was -1.49 ± 0.18 (30 °C) and -2.5 ± 0.22 (37 °C).

Turning to CAGUAGCAAUAUUACGCCUG, the “self-splicing fitness (ln)” value was -2.42 ± 0.25 (30 °C) and -2.46 ± 0.44 (37 °C).

Turning to CAGUAGCAAUAUUACGCGUU, the “self-splicing fitness (ln)” value was -2.21 ± 0.23 (30 °C) and -1.64 ± 0.23 (37 °C).

For the sequence CAGUAGCAAUAUUACGCUCG, the “self-splicing fitness (ln)” value by setting is: (30 °C) -0.354 ± 0.12; (37 °C) -0.439 ± 0.17.

Turning to CAGUAGCAAUAUUACGCUUA, the “self-splicing fitness (ln)” value was -0.683 ± 0.21 (30 °C) and -0.832 ± 0.19 (37 °C).

Take CAGUAGCAAUAUUACGGAGG: the “self-splicing fitness (ln)” value reads like this: (30 °C) -1.61 ± 0.094; (37 °C) -0.514 ± 0.12.

For CAGUAGCAAUAUUACGGAGU, the “self-splicing fitness (ln)” value is -3.34 ± 0.36 (30 °C) and -2.67 ± 0.26 (37 °C).

As for CAGUAGCAAUAUUACGGCCU, the “self-splicing fitness (ln)” value was -3.02 ± 0.2 (30 °C) and -1.67 ± 0.17 (37 °C).

Regarding CAGUAGCAAUAUUACGGCGG, the “self-splicing fitness (ln)” value was -0.246 ± 0.081 (30 °C) and -0.627 ± 0.091 (37 °C).

Regarding CAGUAGCAAUAUUACGGCUA, the “self-splicing fitness (ln)” value is, setting by setting: (30 °C) -1.11 ± 0.15; (37 °C) -1.21 ± 0.16.

Consider CAGUAGCAAUAUUACGGCUU, for which the “self-splicing fitness (ln)” value (30 °C) was -1.58 ± 0.16 and the “self-splicing fitness (ln)” value (37 °C) is -1.01 ± 0.14.

Turning to CAGUAGCAAUAUUACGUAUC, the “self-splicing fitness (ln)” value by setting is: (30 °C) -3.18 ± 0.33; (37 °C) -2.2 ± 0.25.

With CAGUAGCAAUAUUACGUAUG, the “self-splicing fitness (ln)” value by setting is: (30 °C) -2.06 ± 0.11; (37 °C) -1.93 ± 0.16.

Consider CAGUAGCAAUAUUACGUGGA, for which the “self-splicing fitness (ln)” value (30 °C) is -2.9 ± 0.26 and the “self-splicing fitness (ln)” value (37 °C) was -3.63 ± 0.42.

As for CAGUAGCAAUAUUACGUGUU, the “self-splicing fitness (ln)” value (30 °C) is -3.39 ± 0.22 and the “self-splicing fitness (ln)” value (37 °C) is -2.78 ± 0.19.

With CAUAAGCAAUAUUACGAAAG, the “self-splicing fitness (ln)” value is -1.13 ± 0.09 (30 °C) and -0.268 ± 0.12 (37 °C).

Take CAUAAGCAAUAUUACGAACC: the “self-splicing fitness (ln)” value (37 °C) was -1.26 ± 0.35.

CAUAAGCAAUAUUACGAAGC: where the note is “30 °C”, the “self-splicing fitness (ln)” value is -3.09 ± 0.44.

For the sequence CAUAAGCAAUAUUACGACUG, the “self-splicing fitness (ln)” value is -0.582 ± 0.072 (30 °C) and -0.476 ± 0.1 (37 °C).

For the sequence CAUAAGCAAUAUUACGAGCU, the “self-splicing fitness (ln)” value reads like this: (30 °C) -4 ± 0.34; (37 °C) -2.76 ± 0.3.

For the sequence CAUAAGCAAUAUUACGAUCC, the “self-splicing fitness (ln)” value runs as follows: (30 °C) -3.25 ± 0.23; (37 °C) -2.71 ± 0.32.

Consider CAUAAGCAAUAUUACGAUGG, for which the “self-splicing fitness (ln)” value was 0.0378 ± 0.065 (30 °C) and -0.159 ± 0.093 (37 °C).

For CAUAAGCAAUAUUACGCAUU, the “self-splicing fitness (ln)” value reads like this: (30 °C) -3.5 ± 0.18; (37 °C) -1.35 ± 0.17.

CAUAAGCAAUAUUACGCCGC: the “self-splicing fitness (ln)” value is -2.82 ± 0.38 (30 °C) and -1.59 ± 0.47 (37 °C).

Turning to CAUAAGCAAUAUUACGGACA, the “self-splicing fitness (ln)” value runs as follows: (30 °C) -3.09 ± 0.25; (37 °C) -2.11 ± 0.19.

As to CAUAAGCAAUAUUACGGAUU, the “self-splicing fitness (ln)” value (30 °C) is -3.15 ± 0.19 and the “self-splicing fitness (ln)” value (37 °C) is -2.25 ± 0.23.

In the case of CAUAAGCAAUAUUACGGCCG, the “self-splicing fitness (ln)” value runs as follows: (30 °C) 0.39 ± 0.15; (37 °C) 0.125 ± 0.16.
